Results: patent publication CN112062844A (SHANDONG BOAN BIOTECHNOLOGY CO LTD, dated 2020)

How the values were obtained:
[1] = molecular target: T1, ANGPTL3蛋白(10770-H08B，义翘神州) (UniProt Q9Y5C1 17-460); test: cell-based or functional assay
T1 sequence (looked up): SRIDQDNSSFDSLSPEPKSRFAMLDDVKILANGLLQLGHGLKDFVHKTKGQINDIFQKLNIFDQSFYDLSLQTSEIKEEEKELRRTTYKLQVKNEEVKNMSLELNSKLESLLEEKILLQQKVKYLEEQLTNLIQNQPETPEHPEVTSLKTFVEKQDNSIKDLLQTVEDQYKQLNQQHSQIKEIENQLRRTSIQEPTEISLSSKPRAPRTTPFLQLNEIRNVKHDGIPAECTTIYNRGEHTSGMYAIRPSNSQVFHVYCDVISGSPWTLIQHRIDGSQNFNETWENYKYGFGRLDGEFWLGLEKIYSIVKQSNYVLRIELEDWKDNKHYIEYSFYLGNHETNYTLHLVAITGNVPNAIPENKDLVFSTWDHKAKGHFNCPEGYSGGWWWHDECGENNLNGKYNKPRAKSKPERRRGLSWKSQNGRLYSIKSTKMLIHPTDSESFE

[2] = molecular target: T1, ANGPTL3蛋白(10770-H08B，义翘神州); test: ELISA, ANGPTL3 coated at graded concentrations (0.2-0 μg/mL), antibody 1 μg/mL, OD450
[3] = molecular target: T1, ANGPTL3蛋白(10770-H08B，义翘神州); test: SPR, BIAcore 8K, antibody captured by anti-human IgG Fc on CM5, ANGPTL3 as analyte, 1:1 model

B1: AP-REGN-IgG4 (antibody, V domains shown)
VH: EVQLVESGGGVIQPGGSLRLSCAASGFTFDDYAMNWVRQGPGKGLEWVSAISGDGGSTYYADSVKGRFTISRDNSKNSLYLQMNSLRAEDTAFFYCAKDLRNTIFGVVIPDAFDIWGQGTMVTVSS
VL: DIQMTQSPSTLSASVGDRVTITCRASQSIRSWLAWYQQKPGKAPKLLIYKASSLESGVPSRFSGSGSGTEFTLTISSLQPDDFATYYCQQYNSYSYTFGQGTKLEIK
notes: IgG4 by its name; also called Evinacumab; evinacumab
酶活检测EC50 (LPL, DGGR底物, 荧光值) [1]: 95.1 µg/mL
EC50 [2]: 0.162 mg/L
Kd [3]: 0.452 nM
koff [3]: 0.000275 s⁻¹
kon [3]: 609000 M⁻¹ s⁻¹
